{
  "source": "paper PMC7367873",
  "about": "“Dissecting the sequence determinants for dephosphorylation by the catalytic subunits of phosphatases PP1 and PP2A” (Nature Communications, 2020)",
  "target": "T1, PP1c (Homo sapiens, UniProt P62136)",
  "T1 construct": "His tag with TEV site (N, cleaved yes); intein (pTXB1) (C, cleaved yes); made in house; host or cells: E. coli BL21Star(DE3)pRARE",
  "T1 sequence (P62136 whole entry)": "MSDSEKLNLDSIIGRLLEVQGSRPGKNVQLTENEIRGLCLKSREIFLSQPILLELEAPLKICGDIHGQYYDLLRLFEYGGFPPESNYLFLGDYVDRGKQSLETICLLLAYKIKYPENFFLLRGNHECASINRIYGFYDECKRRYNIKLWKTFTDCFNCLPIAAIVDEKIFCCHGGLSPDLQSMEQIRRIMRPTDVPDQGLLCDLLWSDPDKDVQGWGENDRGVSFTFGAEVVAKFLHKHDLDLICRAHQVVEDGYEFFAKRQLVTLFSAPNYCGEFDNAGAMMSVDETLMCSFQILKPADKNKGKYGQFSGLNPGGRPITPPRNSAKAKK",
  "assay": "Phosphopeptide library dephosphorylation followed by mass spectrometry (PLDMS), PP1c",
  "type": "biochemical",
  "settings": "all libraries, 25 nM PP1c, 100 µM library, 2 min, 25 °C, pH 7.5; library distribution 60% Ser to 40% Thr",
  "source_text": "In order to determine phosphatase specificity on the phosphopeptide level, we developed an in vitro phosphopeptide library dephosphorylation followed by mass spectrometry approach (PLDMS, Fig. 1a; see the methods for details). In this approach, phosphopeptide libraries would be treated with PP1, PP2A, or left untreated, purified, and analyzed by LC-MS/MS measurements. In the first step, design, synthesis, and validation of phosphopeptide libraries were required. The phosphopeptide libraries were designed to yield an even distribution of amino acids in the different randomized positions and to give high coupling efficiency during synthesis, thus reducing the number of by-products. […]\nThe individual libraries were incubated with recombinant PP1c or PP2Ac (Supplementary Fig. 1a) and the reaction was stopped by shifting the pH from 7.5 to 3 when 30–50% of the library was dephosphorylated, depending on phosphatase activity (see the methods for details, Supplementary Fig. 1b). Peptides were then separated from the recombinant protein by size-exclusion chromatography (SEC) (Supplementary Fig. 1c) and analyzed by LC-MS/MS (Fig. 1a). […]\nFor LC-MS analysis, the treated/ctrl peptide libraries were purified by SEC. […] A 0.1 M ammonium acetate buffer (pH 5) was used throughout the column equilibration and purification and the elution profile was recorded at 280 nm. […]",
  "data": [
    {"substance": "PP1c: recombinant catalytic subunit of PP1", "values": [
      {"measurement": "pThr share of all sites dephosphorylated by PP1c", "value": 73, "unit": "%"}
    ]}
  ]
}
